In PMC5453731 (Cell chemical biology, 2017):

T1: Rpn1^PC1 (Rpn1^391–642) (yeast (BY4741), UniProt P38764 391-642)
T1 sequence (looked up): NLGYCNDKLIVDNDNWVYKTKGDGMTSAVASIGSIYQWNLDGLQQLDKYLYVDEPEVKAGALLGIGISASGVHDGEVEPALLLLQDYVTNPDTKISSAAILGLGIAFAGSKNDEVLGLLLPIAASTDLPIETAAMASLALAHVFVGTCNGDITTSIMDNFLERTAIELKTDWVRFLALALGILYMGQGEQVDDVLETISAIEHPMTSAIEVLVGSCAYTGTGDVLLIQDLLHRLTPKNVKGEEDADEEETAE


Target: T1, Rpn1^PC1 (Rpn1^391–642)
Test: NMR titration

Row | Kd [µM] | Binder
1 | 40 ± 31 | Ubp6^UBL (domain or fragment, yeast (BY4741), UniProt P43593 1-80, looked up, 15N-labelled) MSGETFEFNIRHSGKVYPITLSTDATSADLKSKAEELTQVPSARQKYMVKGGLSGEESIKIYPLIKPGSTVMLLGTPDAN
2 | 22 ± 12 | Dsk2^UBL (domain or fragment, yeast (BY4741), UniProt P48510 1-76, looked up) MSLNIHIKSGQDKWEVNVAPESTVLQFKEAINKANGIPVANQRLIYSGKILKDDQTVESYHIQDGHSVHLVKSQPK
3 | 280 ± 20 | Rub1 (natural protein, yeast (BY4741), UniProt Q03919 1-77, looked up, 15N-labelled) MIVKVKTLTGKEISVELKESDLVYHIKELLEEKEGIPPSQQRLIFQGKQIDDKLTVTDAHLVEGMQLHLVLTLRGG
